Test results from patent US20260116996A1 (REGENTS OF THE UNIVERSITY OF MINNESOTA, published 2026).

T1: human serpinB1 (human, UniProt P30740 1-379)
T1 construct: Luminex antigen captured from a 293 cell lysate; not shown: V5-His tag of the pcDNA3.1 Directional V5-His-TOPO vector
T1 sequence (looked up): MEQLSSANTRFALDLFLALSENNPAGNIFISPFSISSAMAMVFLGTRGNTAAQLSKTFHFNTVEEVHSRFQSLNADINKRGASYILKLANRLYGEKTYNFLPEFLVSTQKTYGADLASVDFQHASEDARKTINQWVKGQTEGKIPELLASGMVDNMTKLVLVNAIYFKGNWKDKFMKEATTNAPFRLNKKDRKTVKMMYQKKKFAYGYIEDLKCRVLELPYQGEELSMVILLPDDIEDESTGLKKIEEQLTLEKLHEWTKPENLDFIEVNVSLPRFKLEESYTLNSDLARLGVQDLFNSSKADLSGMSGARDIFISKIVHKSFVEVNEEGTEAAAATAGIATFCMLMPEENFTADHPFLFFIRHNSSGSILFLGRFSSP

T2: human serpinB6 (human, UniProt P35237 1-376)
T2 construct: Luminex antigen captured from a 293 cell lysate; not shown: V5-His tag of the pcDNA3.1 Directional V5-His-TOPO vector
T2 sequence (looked up): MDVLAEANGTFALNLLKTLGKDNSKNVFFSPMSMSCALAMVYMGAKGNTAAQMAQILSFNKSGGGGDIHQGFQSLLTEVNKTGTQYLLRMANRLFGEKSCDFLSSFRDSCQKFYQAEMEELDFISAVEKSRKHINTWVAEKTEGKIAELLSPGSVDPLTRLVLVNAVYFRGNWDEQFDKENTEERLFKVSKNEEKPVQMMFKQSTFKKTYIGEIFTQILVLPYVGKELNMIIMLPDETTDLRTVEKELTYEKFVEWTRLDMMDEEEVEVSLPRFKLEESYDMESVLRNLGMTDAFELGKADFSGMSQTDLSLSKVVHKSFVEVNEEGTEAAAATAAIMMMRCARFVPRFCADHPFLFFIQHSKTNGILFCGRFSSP

T3: human serpinB7 (human, UniProt O75635 1-380)
T3 construct: Luminex antigen captured from a 293 cell lysate; not shown: V5-His tag of the pcDNA3.1 Directional V5-His-TOPO vector
T3 sequence (looked up): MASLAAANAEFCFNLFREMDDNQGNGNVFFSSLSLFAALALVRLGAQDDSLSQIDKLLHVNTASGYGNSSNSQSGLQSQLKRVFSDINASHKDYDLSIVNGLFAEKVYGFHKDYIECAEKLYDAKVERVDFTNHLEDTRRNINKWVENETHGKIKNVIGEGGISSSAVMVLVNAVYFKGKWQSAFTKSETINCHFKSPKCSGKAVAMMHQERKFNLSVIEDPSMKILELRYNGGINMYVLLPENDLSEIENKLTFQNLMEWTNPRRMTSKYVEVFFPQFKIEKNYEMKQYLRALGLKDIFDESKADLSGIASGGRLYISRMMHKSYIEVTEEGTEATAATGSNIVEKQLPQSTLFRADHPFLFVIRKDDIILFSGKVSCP

T4: human serpinB11 (human, UniProt Q96P15 1-392)
T4 construct: Luminex antigen captured from a 293 cell lysate; not shown: V5-His tag of the pcDNA3.1 Directional V5-His-TOPO vector
T4 sequence (looked up): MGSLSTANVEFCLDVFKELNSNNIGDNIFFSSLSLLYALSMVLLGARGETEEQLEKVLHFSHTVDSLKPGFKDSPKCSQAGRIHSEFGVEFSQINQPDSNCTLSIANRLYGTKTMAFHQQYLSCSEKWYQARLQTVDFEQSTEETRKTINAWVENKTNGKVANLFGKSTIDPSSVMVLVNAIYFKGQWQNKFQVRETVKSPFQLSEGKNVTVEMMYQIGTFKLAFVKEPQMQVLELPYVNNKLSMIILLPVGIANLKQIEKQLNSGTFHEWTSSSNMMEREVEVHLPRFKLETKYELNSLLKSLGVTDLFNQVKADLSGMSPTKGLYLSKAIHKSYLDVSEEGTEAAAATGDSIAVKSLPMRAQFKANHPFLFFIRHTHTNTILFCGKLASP

T5: recombinant human serpinB13 (human, UniProt Q9UIV8 1-391)
T5 construct: The baculovirus-made protein (GenScript) was used for panning, ELISA and the cathepsin L assay; In the Luminex assay human serpinB13 was V5-His tagged and came from 293 cell lysates; also called rhB13
T5 sequence (looked up): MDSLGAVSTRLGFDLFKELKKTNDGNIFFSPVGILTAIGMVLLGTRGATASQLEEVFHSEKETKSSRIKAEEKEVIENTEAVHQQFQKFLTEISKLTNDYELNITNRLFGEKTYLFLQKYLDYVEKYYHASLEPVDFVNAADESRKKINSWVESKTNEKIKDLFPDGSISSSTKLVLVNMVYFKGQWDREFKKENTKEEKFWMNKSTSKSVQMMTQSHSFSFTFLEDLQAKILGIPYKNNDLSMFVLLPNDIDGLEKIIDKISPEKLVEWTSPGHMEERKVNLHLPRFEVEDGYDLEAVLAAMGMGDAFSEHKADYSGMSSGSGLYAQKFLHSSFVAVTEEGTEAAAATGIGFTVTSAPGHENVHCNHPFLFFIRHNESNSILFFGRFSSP


How the values were obtained:
human serpinB1 = target: T1, human serpinB1; assay: Luminex bead assay, beads coated with human serpinB1, background (Gfp and Scgn beads) subtracted
Procedure: (§1) The latter was determined as the average antibody binding to Luminex beads coated with Gfp and Scgn control antigens. Similar data were obtained for antigen binding of Fab fragments of these antibodies (data not shown).
(§2) Luminex assay. Luminex-based technology was used to measure serpinB13 AA in human samples. Initially, the Luminex beads were precoated with serpinB13, Gfp and Scgn, using precleared lysates of 293 cells that had been transfected with individual cDNAs. Biotinylated mouse anti-human K and 2 chain mAbs (BD Biosciences) (dilution 1:300) and streptavidin (Invitrogen) (dilution 1:200) were used as secondary reagents to measure human serum binding activity to individual antigens. The data were expressed as fluorescence intensity (F.I.) due to serum binding activity in the presence of beads precoated with serpinB13 and after subtracting the average F.I. due to serum binding activity in the presence of beads precoated with control proteins, Gfp and Scgn (e.g. F.I.^B13-[F.I.^GFP+F.I.^Segn]/2). The samples were evaluated based on the level of F.I. and the degree of inhibition of binding to serpin-B13 coated beads with soluble serpinB13 (2.5 μg/mL), compared with the bovine serum albumin (BSA). […] All samples were run blind on three independent occasions. Subjects with serum samples that produced a positive results three times were considered positive. Subjects with serum samples that produced a negative result on at least one occasion were considered negative.
(§3) To determine whether anti-serpin activity is specific, binding of three human recombinant antibodies to serpinB13 was examined for potential cross-reactivity with other clade B serpins. Binding to the beads conjugated with Gfp and Scgn was used to subtract the background and the assay was developed using the same reagents as those described above for measuring serpinB13 AA in serum samples.

human serpinB6 = target: T2, human serpinB6; assay: Luminex bead assay, beads coated with human serpinB6, background (Gfp and Scgn beads) subtracted
Procedure: as §1, §2, §3

human serpinB7 = target: T3, human serpinB7; assay: Luminex bead assay, beads coated with human serpinB7, background (Gfp and Scgn beads) subtracted
Procedure: as §1, §2, §3

human serpinB11 = target: T4, human serpinB11; assay: Luminex bead assay, beads coated with human serpinB11, background (Gfp and Scgn beads) subtracted
Procedure: as §1, §2, §3

[1] = target: T5, recombinant human serpinB13; assay: Luminex bead assay, beads coated with human serpinB13, antibody at 1.0 µg/mL, background (mean of Gfp and Scgn beads) subtracted
Procedure: as §1, §2, §3

Binder	binding result (human serpinB1)	binding result (human serpinB6)	binding result (human serpinB7)	binding result (human serpinB11)	binding result [1]
recombinant fully human anti-serpinB13 antibody Clone 1 (antibody, human IgG1, kappa, V domains shown, also called mAb1; mAbs1) VH: QVQLQESGGGVVQPGRSLRLSCAASGFTFSSYGMHWVRQAPGKGLEWVAVISYDGSNKYYADSVKGRFTISRDNSKNTLYLQMNSLRAEDTAVYYCARDLGAVIAVAGTSTPYNWFDPWGQGTLVTVSS VL: DVVMTQSPLSLPVTPGEPASISCRSRQSLLHSNGHNYLGWYLQKPGQSPQLLIYLASIRASGIPDRFSGSGSGTDFTLKISRVEAEDVGVYYCMQALQTPYTFGQGTKLEIKR	no binding (tested: 1.0 µg/mL)	no binding (tested: 1.0 µg/mL)	no binding (tested: 1.0 µg/mL)	no binding (tested: 1.0 µg/mL)	binds
recombinant fully human anti-serpinB13 antibody Clone 3 (antibody, human IgG1, kappa, V domains shown, also called mAb3; CLONE3-H(m1) / CLONE3-L(m1)) VH: QVQLQQWGAGLLKPSETLSLTCAVYGGSFSGYYWSWIRQPPGKGLEWIGEINHSGSTNYNPSLKSRVTISVDTSKNQFSLKLSSVTAADTAVYYCARRYCSGGSCYLVGTGSELDYWGQGTLVTVSS VL: DIQMTQSPSTLSASVGDRVTITCRASQSISSWLAWYQQKPGKAPKLLIYKASSLEIGVPSRFSGSGYGTEFTLTISSLQPDDFATYYCLQYSTHSTFGQGTRVEIKR	no binding (tested: 1.0 µg/mL)	no binding (tested: 1.0 µg/mL)	no binding (tested: 1.0 µg/mL)	no binding (tested: 1.0 µg/mL)	binds
recombinant fully human anti-serpinB13 antibody Clone 2 (antibody, human IgG1, kappa, V domains shown, also called mAb2; CLONE2-H(m1) / CLONE2-L(m1)) VH: QMQLVQSGGGVVRPGGSLRLSCAASGFTFDDYGMSWVRQAPGKGLEWVSGINWNGGSTGYADSVKGRFTISRDNAKNSLYLQMNSLRAEDTALYYCARESSMTTVTTYLLREVGVGLDFDYWGQGTLVTVSS VL: ETTLTQSPGTLSLSPGERATLSCRASQTVSGSYLAWYQQKPGQPPRLLIYGASSRATGIPDRFSGSGSGTDFTLTISRLEPEDFAVYYCQDYGSSRTFGQGTKVELKR	no binding (tested: 1.0 µg/mL)	no binding (tested: 1.0 µg/mL)	no binding (tested: 1.0 µg/mL)	no binding (tested: 1.0 µg/mL)	binds
